Laboratory results taken from paper PMC9342896.

Molecular target: aryl hydrocarbon nuclear receptor translocator 2 (ARNT2), in T-REx293 lysate (human (endogenous in T-REx293)) (UniProt Q9HBZ2)
UniProt Q9HBZ2, sequence (Q9HBZ2 whole entry): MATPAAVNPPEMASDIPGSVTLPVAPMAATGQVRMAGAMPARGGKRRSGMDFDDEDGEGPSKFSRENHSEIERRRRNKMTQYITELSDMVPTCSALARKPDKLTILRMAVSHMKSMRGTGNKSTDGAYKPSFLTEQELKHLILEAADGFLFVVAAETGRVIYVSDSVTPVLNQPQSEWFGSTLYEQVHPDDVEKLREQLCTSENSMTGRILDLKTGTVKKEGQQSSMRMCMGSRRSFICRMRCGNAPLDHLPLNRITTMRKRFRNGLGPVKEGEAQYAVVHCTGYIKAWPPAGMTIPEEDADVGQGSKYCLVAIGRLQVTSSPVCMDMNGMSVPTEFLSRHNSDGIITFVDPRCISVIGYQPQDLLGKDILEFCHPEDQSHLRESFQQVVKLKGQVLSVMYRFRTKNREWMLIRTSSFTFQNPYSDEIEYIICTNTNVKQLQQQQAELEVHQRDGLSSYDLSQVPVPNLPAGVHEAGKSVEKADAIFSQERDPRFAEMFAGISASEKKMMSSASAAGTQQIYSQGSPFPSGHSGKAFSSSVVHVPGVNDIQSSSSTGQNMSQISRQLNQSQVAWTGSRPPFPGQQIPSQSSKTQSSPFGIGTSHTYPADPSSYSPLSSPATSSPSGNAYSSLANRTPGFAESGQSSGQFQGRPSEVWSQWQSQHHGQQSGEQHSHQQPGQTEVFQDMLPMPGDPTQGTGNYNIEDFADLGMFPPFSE

SIM2s-2xHA-3xFLAG W306R variant (natural protein)
6xCME luciferase reporter gene activity compared with WT SIM2s: 50 % reduction
